Assays:
Experiment in all cases: bead flow cytometry, AUC minus CD4
MERS-CoV spike protein = molecular target: T1, MERS-CoV spike protein (MERS-CoV, UniProt K9N5Q8 18-1291)
T1 sequence: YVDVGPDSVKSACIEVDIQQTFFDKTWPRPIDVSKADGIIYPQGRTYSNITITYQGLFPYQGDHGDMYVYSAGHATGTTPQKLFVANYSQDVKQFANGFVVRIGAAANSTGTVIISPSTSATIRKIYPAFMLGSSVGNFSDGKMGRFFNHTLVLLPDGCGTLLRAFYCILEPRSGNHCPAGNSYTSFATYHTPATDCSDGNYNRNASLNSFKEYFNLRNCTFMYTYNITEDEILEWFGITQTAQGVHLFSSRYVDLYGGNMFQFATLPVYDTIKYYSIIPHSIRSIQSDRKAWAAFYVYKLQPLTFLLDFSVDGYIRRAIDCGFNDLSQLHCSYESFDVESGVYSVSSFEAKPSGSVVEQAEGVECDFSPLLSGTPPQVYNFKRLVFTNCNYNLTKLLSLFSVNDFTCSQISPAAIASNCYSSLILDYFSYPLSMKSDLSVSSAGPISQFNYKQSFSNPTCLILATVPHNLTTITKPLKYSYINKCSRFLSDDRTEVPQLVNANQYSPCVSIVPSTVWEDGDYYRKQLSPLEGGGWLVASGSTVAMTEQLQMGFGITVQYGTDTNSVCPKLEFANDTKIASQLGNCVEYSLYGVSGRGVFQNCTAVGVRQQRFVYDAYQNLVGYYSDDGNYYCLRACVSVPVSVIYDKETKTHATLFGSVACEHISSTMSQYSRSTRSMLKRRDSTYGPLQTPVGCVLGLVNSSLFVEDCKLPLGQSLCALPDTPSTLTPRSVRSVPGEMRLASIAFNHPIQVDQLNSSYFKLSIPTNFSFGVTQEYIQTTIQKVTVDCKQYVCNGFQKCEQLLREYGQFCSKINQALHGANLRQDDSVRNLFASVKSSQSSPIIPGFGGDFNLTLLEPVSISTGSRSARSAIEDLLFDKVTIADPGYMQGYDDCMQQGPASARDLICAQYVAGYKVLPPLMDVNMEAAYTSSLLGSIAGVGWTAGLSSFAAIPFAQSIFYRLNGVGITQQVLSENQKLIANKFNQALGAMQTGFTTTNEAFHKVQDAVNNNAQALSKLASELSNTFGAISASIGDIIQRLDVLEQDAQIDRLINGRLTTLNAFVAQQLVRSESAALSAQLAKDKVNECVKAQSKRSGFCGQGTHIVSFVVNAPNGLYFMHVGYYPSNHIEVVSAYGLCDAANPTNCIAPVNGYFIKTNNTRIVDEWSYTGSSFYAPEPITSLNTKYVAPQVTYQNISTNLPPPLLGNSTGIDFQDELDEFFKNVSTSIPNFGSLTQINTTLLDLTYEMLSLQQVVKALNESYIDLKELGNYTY

[1] = molecular target: T2, HCoV-HKU1 spike protein (Sino Biological 40606-V08B) (HCoV-HKU1, UniProt Q0ZME7 13-1295)
T2 sequence: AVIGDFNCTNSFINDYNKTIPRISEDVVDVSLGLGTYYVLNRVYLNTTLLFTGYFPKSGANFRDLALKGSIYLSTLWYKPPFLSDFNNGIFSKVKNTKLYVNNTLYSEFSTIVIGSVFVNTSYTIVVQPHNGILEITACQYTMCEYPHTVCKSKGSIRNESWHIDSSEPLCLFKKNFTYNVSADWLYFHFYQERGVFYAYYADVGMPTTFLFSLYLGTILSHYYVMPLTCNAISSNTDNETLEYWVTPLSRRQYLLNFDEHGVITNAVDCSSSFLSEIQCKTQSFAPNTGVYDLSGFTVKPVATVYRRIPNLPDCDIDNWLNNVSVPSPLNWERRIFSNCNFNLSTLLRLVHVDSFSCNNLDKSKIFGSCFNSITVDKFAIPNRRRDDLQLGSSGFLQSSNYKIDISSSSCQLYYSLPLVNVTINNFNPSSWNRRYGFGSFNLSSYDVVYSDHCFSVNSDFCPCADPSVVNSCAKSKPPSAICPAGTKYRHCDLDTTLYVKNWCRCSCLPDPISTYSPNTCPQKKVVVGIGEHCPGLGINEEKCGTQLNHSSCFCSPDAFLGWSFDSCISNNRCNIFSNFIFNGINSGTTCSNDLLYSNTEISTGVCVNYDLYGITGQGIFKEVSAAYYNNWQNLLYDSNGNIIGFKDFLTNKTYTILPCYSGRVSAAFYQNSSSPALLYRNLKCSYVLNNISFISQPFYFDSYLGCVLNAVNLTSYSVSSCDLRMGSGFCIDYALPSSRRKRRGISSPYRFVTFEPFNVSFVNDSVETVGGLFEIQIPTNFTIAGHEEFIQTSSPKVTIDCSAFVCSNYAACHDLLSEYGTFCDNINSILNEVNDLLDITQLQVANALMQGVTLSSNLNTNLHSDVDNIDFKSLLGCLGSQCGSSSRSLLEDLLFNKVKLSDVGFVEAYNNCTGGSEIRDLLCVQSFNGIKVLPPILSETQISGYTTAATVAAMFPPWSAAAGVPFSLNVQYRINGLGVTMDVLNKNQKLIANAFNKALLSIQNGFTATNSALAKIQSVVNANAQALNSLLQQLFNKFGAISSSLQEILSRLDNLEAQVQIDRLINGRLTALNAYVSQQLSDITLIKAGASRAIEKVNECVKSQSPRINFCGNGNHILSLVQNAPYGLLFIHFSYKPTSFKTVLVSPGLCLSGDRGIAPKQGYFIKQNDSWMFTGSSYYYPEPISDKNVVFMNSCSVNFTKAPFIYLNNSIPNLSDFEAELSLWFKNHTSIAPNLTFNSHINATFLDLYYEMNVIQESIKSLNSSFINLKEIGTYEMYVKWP

[2] = molecular target: T3, SARS-CoV-2 spike S2 subunit, recombinant (SARS-CoV-2, UniProt P0DTC2 686-1213)
T3 construct: domain: S2 subunit

B1: COV57-38 (antibody, V domains shown)
VH: QVQLVESGGGVVQPGRSLRLSCEASGFNFNNYGMHWVRQAPGKGLEWVAVISYEGSKKYYEDSVRGRFTISRDFSKNTLYLQMNSLRAEDTAVYYCAKANEIFWLGQFKNDALDFWGQGTMVTVSS
VL: QSVLTQPPSASGTPGQRVAVSCSGSSSNIGTNFVNWYQHLPRTAPKLLIYRDNQRPSGVPDRFSGSKSGTSASLAISGLQSEDEADYYCAVWDDSLNGQVFGGGTKVTVL
MERS-CoV spike protein
  binding result: no binding (tested: 200 µg/mL)

B2: COV77-09 (antibody, V domains shown)
VH: EVQLVESGGGLVQPGRSLTLSCSGSGFTFGDYSMSWVRQAPGKGLEWLGFIRSQTYGGTTQYAASVQGRFTILRDDSKSIAYLQMNSLKTEDTAVYYCTRNYGVGDYWGQGTLVTVSS
VL: DIVMTQSPASLAVSLGERATIHCRSSLSVLNSSNNKNYLAWYQQKAGQPPKLLMYWASTRESGVPERFSGSGSGTDFTLTISSLEAGDVAVYYCQQYYDKLSLTFGGGTKVEIK
MERS-CoV spike protein
  binding result: no binding (tested: 200 µg/mL)

B3: COV44-37 (antibody, V domains shown)
VH: QVQLVQSGAEVKKPGASVMLSCRASGYTFINDYMHWVRQAPGEGFEWMGIINPTGDGTKFAQKFQGRVTMTRDSSTTTVHMELRSLTSGDTAVYFCATGGRQSAFDIWGQGTVVIVSS
VL: DIVMTQSPLSLPVTPGESASISCRSSQSLLQNNGYNYLDWYLQKPGQSPQLLIYLGSYRASGVPDRFSGSGSGTDFTLKISRVEAEDVGVYYCVQAQQAPPLYTFGQGTKLQIK
[1]
  binding result: no binding (tested: 200 µg/mL)

B4: COV49-54 (antibody, V domains shown)
VH: EVQLVESGGGLVQPGGSLRLSCAASGFIVSSNYMSWVRQAPGKGLEWVSMIYSGGSTVYADSVKGRFTISRDISKNTLYLQMNSLRAEDTAVYYCALETFDYWGQGTLVTVSS
VL: DIQMTQSPSSLSASVGDRVTITCRASQGITNHLAWYQQKPGKVPKLLIYAASTLQSGVPSRFSGSGYGTDFTLTISSLQPEDVASYYCQKYDSAPRTFGQGTKVEIK
MERS-CoV spike protein
  binding result: no binding (tested: 200 µg/mL)
[2]
  binding result: no binding (tested: 200 µg/mL)

B5: COV44-74 (antibody, V domains shown)
VH: QVQLVQSGAEVKKPGASVKVSCKASGYTFSSYYMNWVRQAPGQGLEWVGLISPSAGYTAYAQMFQGRVTMTRDTSTSTVYMELSSLRSEDTAVYYCARVAVAGPNDYWGQGTLVTVSS
VL: EIVLTQSPGTLSLSPGERATLSCRASQSISSSYLAWYQQKPGQAPRLVILAASTRATGIPDRFSGSGSGTDFTLTISRLEPEDFALYYCQHYRSSPPLWTFGQGTKVEIR
[1]
  binding result: no binding (tested: 200 µg/mL)

B6: COV57-34 (antibody, V domains shown)
VH: QVQLVQSGTEVKKPGSSVKVSCRASGGTLSSYSVSWVRQAPGQGLEWMGRIIPILDKKTYAQKYQGRVTIIADTSTSTVYMELSSLKSDDSAVYYCTTFDYDTSGQRDQHDYWGQGTPVTVSS
VL: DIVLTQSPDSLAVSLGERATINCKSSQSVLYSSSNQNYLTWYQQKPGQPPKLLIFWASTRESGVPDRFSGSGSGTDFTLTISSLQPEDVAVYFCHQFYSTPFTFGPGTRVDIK
MERS-CoV spike protein
  binding result: no binding (tested: 200 µg/mL)

B7: COV57-13 (antibody, V domains shown)
VH: QVQLVQSGTEVKKPGSSVKVSCRASGGTLSSYSVSWVRQAPGQGLEWMGRIIPILDKKTYAQKYQGRVTIIADTSTSTVYMELSSLKSEDSAVYYCTTFDYDTSGQRDQHDYWGQGTLVTVSS
VL: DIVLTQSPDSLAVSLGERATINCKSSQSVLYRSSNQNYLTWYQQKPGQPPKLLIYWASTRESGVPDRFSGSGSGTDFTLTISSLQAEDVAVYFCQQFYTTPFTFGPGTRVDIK
MERS-CoV spike protein
  binding result: no binding (tested: 200 µg/mL)

Reference: US20250145690A1 (US Dept. of Health and Human Services, published 2025)
